US20200079833A1 (AstraZeneca / MedImmune, published 2020)
Starred links: 1 amine or outer side, 2 acyl side, 3 side chain; linkers in the order of their positions; H or OH if unused. Non-standard residues stand in square brackets, D forms with d. Groups on a side chain read outwards from the residue. Primed or numbered codes have the meaning given here. No end group written: not given here. *: point of attachment. γGlu = O=C(O)[C@H](CCC(=O)[*:2])N[*:1]; Stearoyl = CCCCCCCCCCCCCCCCCC(=O)*; Palmitoyl = CCCCCCCCCCCCCCCC(=O)*; αMeF = C[C@](N)(Cc1ccccc1)C(=O)O; αMeK = C[C@](N)(CCCCN)C(=O)O; αMeS = C[C@](N)(CO)C(=O)O; PEG2′ = not defined here; Aib = CC(C)(N)C(=O)O

B1: SEQ ID NO 30 (peptide)
peptide: H[Aib]EGS[αMeF]TVDV[αMeS]S[αMeF]LEGEAA[αMeK]E[αMeF]IA[αMeF]VV[αMeK]GG-NH2
modifications: N-terminus assumed
SMILES: CC[C@H](C)[C@H](NC(=O)[C@](C)(Cc1ccccc1)NC(=O)[C@H](CCC(=O)O)NC(=O)[C@](C)(CCCCN)NC(=O)[C@H](C)NC(=O)[C@H](C)NC(=O)[C@H](CCC(=O)O)NC(=O)CNC(=O)[C@H](CCC(=O)O)NC(=O)[C@H](CC(C)C)NC(=O)[C@](C)(Cc1ccccc1)NC(=O)[C@H](CO)NC(=O)[C@](C)(CO)NC(=O)[C@@H](NC(=O)[C@H](CC(=O)O)NC(=O)[C@@H](NC(=O)[C@@H](NC(=O)[C@](C)(Cc1ccccc1)NC(=O)[C@H](CO)NC(=O)CNC(=O)[C@H](CCC(=O)O)NC(=O)C(C)(C)NC(=O)[C@@H](N)Cc1c[nH]cn1)[C@@H](C)O)C(C)C)C(C)C)C(=O)N[C@@H](C)C(=O)N[C@@](C)(Cc1ccccc1)C(=O)N[C@H](C(=O)N[C@H](C(=O)N[C@@](C)(CCCCN)C(=O)NCC(=O)NCC(N)=O)C(C)C)C(C)C
B2: SEQ ID NO 34 (peptide)
peptide: H[Aib]EGS[αMeF]TSDV[αMeS]S[αMeF]LEGEAAK([γGlu-Palmitoyl])E[αMeF]IA[αMeF]VV[αMeK]GG-NH2
modifications: N-terminus assumed
SMILES: CCCCCCCCCCCCCCCC(=O)N[C@@H](CCC(=O)NCCCC[C@H](NC(=O)[C@H](C)NC(=O)[C@H](C)NC(=O)[C@H](CCC(=O)O)NC(=O)CNC(=O)[C@H](CCC(=O)O)NC(=O)[C@H](CC(C)C)NC(=O)[C@](C)(Cc1ccccc1)NC(=O)[C@H](CO)NC(=O)[C@](C)(CO)NC(=O)[C@@H](NC(=O)[C@H](CC(=O)O)NC(=O)[C@H](CO)NC(=O)[C@@H](NC(=O)[C@](C)(Cc1ccccc1)NC(=O)[C@H](CO)NC(=O)CNC(=O)[C@H](CCC(=O)O)NC(=O)C(C)(C)NC(=O)[C@@H](N)Cc1c[nH]cn1)[C@@H](C)O)C(C)C)C(=O)N[C@@H](CCC(=O)O)C(=O)N[C@@](C)(Cc1ccccc1)C(=O)N[C@H](C(=O)N[C@@H](C)C(=O)N[C@@](C)(Cc1ccccc1)C(=O)N[C@H](C(=O)N[C@H](C(=O)N[C@@](C)(CCCCN)C(=O)NCC(=O)NCC(N)=O)C(C)C)C(C)C)[C@@H](C)CC)C(=O)O
B3: SEQ ID NO 37 (peptide)
peptide: H[Aib]EGS[αMeF]TDDV[αMeS]S[αMeF]LEGEAAK([γGlu-Palmitoyl])E[αMeF]IA[αMeF]VV[αMeK]GG-NH2
modifications: N-terminus assumed
SMILES: CCCCCCCCCCCCCCCC(=O)N[C@@H](CCC(=O)NCCCC[C@H](NC(=O)[C@H](C)NC(=O)[C@H](C)NC(=O)[C@H](CCC(=O)O)NC(=O)CNC(=O)[C@H](CCC(=O)O)NC(=O)[C@H](CC(C)C)NC(=O)[C@](C)(Cc1ccccc1)NC(=O)[C@H](CO)NC(=O)[C@](C)(CO)NC(=O)[C@@H](NC(=O)[C@H](CC(=O)O)NC(=O)[C@H](CC(=O)O)NC(=O)[C@@H](NC(=O)[C@](C)(Cc1ccccc1)NC(=O)[C@H](CO)NC(=O)CNC(=O)[C@H](CCC(=O)O)NC(=O)C(C)(C)NC(=O)[C@@H](N)Cc1c[nH]cn1)[C@@H](C)O)C(C)C)C(=O)N[C@@H](CCC(=O)O)C(=O)N[C@@](C)(Cc1ccccc1)C(=O)N[C@H](C(=O)N[C@@H](C)C(=O)N[C@@](C)(Cc1ccccc1)C(=O)N[C@H](C(=O)N[C@H](C(=O)N[C@@](C)(CCCCN)C(=O)NCC(=O)NCC(N)=O)C(C)C)C(C)C)[C@@H](C)CC)C(=O)O
B4: SEQ ID NO 32 (peptide)
peptide: H[Aib]EGS[αMeF]TSDV[αMeS]S[αMeF]LEGEAA[αMeK]E[αMeF]IA[αMeF]VV[αMeK]GGK([γGlu-Palmitoyl])-NH2
modifications: N-terminus assumed
SMILES: CCCCCCCCCCCCCCCC(=O)N[C@@H](CCC(=O)NCCCC[C@H](NC(=O)CNC(=O)CNC(=O)[C@](C)(CCCCN)NC(=O)[C@@H](NC(=O)[C@@H](NC(=O)[C@](C)(Cc1ccccc1)NC(=O)[C@H](C)NC(=O)[C@@H](NC(=O)[C@](C)(Cc1ccccc1)NC(=O)[C@H](CCC(=O)O)NC(=O)[C@](C)(CCCCN)NC(=O)[C@H](C)NC(=O)[C@H](C)NC(=O)[C@H](CCC(=O)O)NC(=O)CNC(=O)[C@H](CCC(=O)O)NC(=O)[C@H](CC(C)C)NC(=O)[C@](C)(Cc1ccccc1)NC(=O)[C@H](CO)NC(=O)[C@](C)(CO)NC(=O)[C@@H](NC(=O)[C@H](CC(=O)O)NC(=O)[C@H](CO)NC(=O)[C@@H](NC(=O)[C@](C)(Cc1ccccc1)NC(=O)[C@H](CO)NC(=O)CNC(=O)[C@H](CCC(=O)O)NC(=O)C(C)(C)NC(=O)[C@@H](N)Cc1c[nH]cn1)[C@@H](C)O)C(C)C)[C@@H](C)CC)C(C)C)C(C)C)C(N)=O)C(=O)O
B5: SEQ ID NO 35 (peptide)
peptide: H[Aib]EGS[αMeF]TDDV[αMeS]S[αMeF]LEGEAA[αMeK]E[αMeF]IA[αMeF]VV[αMeK]GGK([γGlu-Palmitoyl])-NH2
modifications: N-terminus assumed
SMILES: CCCCCCCCCCCCCCCC(=O)N[C@@H](CCC(=O)NCCCC[C@H](NC(=O)CNC(=O)CNC(=O)[C@](C)(CCCCN)NC(=O)[C@@H](NC(=O)[C@@H](NC(=O)[C@](C)(Cc1ccccc1)NC(=O)[C@H](C)NC(=O)[C@@H](NC(=O)[C@](C)(Cc1ccccc1)NC(=O)[C@H](CCC(=O)O)NC(=O)[C@](C)(CCCCN)NC(=O)[C@H](C)NC(=O)[C@H](C)NC(=O)[C@H](CCC(=O)O)NC(=O)CNC(=O)[C@H](CCC(=O)O)NC(=O)[C@H](CC(C)C)NC(=O)[C@](C)(Cc1ccccc1)NC(=O)[C@H](CO)NC(=O)[C@](C)(CO)NC(=O)[C@@H](NC(=O)[C@H](CC(=O)O)NC(=O)[C@H](CC(=O)O)NC(=O)[C@@H](NC(=O)[C@](C)(Cc1ccccc1)NC(=O)[C@H](CO)NC(=O)CNC(=O)[C@H](CCC(=O)O)NC(=O)C(C)(C)NC(=O)[C@@H](N)Cc1c[nH]cn1)[C@@H](C)O)C(C)C)[C@@H](C)CC)C(C)C)C(C)C)C(N)=O)C(=O)O

These binders were tested against GLP-1 receptor (human, UniProt P43220 24-463) (assay: cell-based or functional assay).

| Binder | Primary assay EC50 (cAMP), Mean pM GLP-1R [pM] | Primary assay EC50 (cAMP), n1 [nM] | Primary assay EC50 (cAMP), n2 [nM] |
| --- | --- | --- | --- |
| H[Aib]EGS[αMeF]TSDV[αMeS]S[αMeF]LEGEAAK([PEG2′-PEG2′-γGlu-Stearoyl])E[αMeF]IA[αMeF]VV[αMeK]GG-NH2 [SEQ ID NO 33] | 100 | 0.064 | 0.14 |
| B1 | 88600 | 80 | 97 |
| H[Aib]EGS[αMeF]TDDV[αMeS]S[αMeF]LEGEAAK([PEG2′-PEG2′-γGlu-Stearoyl])E[αMeF]IA[αMeF]VV[αMeK]GG-NH2 [SEQ ID NO 36] | 44200 | 63 | 25 |
| B2 | 43 | 0.039 | 0.048 |
| B3 | 4500 | 7.3 | 1.7 |
| B4 | 27 | 0.036 | 0.018 |
| B5 | 3260 | 4.9 | 1.7 |
| HXEGTFTSDVSSYLEGQAAKEFIAWLVKGRK (Aib 2; K(ε-(PEG)2-(PEG)2-γE-Stearate) after R30; C-terminal amide) [SEQ ID NO 6] | 5.1 | 0.0048 | 0.0053 |

Each binder was assayed against glucagon receptor (human, UniProt P47871 26-477) (assay: cell-based or functional assay).
Chain of glucagon receptor (P47871 26-477): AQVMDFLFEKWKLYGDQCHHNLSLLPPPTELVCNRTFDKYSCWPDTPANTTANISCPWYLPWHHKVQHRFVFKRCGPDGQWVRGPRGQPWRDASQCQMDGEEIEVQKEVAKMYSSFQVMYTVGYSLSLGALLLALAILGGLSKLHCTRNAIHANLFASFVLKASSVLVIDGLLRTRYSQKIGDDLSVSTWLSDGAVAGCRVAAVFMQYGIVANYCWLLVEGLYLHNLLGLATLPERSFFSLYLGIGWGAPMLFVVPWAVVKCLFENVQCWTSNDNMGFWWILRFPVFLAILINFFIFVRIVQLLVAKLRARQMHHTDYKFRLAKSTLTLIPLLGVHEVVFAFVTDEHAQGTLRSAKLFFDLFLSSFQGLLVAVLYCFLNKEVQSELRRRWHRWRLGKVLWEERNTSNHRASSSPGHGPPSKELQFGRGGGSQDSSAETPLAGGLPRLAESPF

| Binder | Primary assay EC50 (cAMP), n1 [nM] | Primary assay EC50 (cAMP), n2 [nM] |
| --- | --- | --- |
| H[Aib]EGS[αMeF]TSDV[αMeS]S[αMeF]LEGEAAK([PEG2′-PEG2′-γGlu-Stearoyl])E[αMeF]IA[αMeF]VV[αMeK]GG-NH2 [SEQ ID NO 33] | 25 | 25 |
| B1 | 100 | 100 |
| H[Aib]EGS[αMeF]TDDV[αMeS]S[αMeF]LEGEAAK([PEG2′-PEG2′-γGlu-Stearoyl])E[αMeF]IA[αMeF]VV[αMeK]GG-NH2 [SEQ ID NO 36] | 84 | 25 |
| B2 | 93 | 93 |
| B3 | 92 | 28 |
| B4 | 90 | 90 |
| B5 | 89 | 27 |
| HXEGTFTSDVSSYLEGQAAKEFIAWLVKGRK (Aib 2; K(ε-(PEG)2-(PEG)2-γE-Stearate) after R30; C-terminal amide) [SEQ ID NO 6] | 22 | 22 |

These binders were tested against T1, glucose-dependent insulinotropic peptide (gastric inhibitory polypeptide) receptor (human, UniProt P48546 22-466) (assay: cell-based or functional assay).
T1 sequence (looked up): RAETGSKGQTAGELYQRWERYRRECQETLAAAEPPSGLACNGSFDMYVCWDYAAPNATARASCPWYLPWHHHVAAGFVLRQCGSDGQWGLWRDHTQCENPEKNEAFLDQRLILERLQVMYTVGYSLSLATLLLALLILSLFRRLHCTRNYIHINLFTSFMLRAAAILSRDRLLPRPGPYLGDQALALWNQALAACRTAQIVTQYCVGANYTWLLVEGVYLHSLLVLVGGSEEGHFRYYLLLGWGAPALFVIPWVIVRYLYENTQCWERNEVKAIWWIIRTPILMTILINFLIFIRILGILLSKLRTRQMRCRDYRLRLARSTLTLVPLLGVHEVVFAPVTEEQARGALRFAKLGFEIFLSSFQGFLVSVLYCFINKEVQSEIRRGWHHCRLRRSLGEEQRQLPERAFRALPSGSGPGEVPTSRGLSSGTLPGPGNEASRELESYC

| Binder | Primary assay EC50 (cAMP), n1 [nM] | Primary assay EC50 (cAMP), n2 [nM] |
| --- | --- | --- |
| H[Aib]EGS[αMeF]TSDV[αMeS]S[αMeF]LEGEAAK([PEG2′-PEG2′-γGlu-Stearoyl])E[αMeF]IA[αMeF]VV[αMeK]GG-NH2 [SEQ ID NO 33] | 25 | 25 |
| B1 | 100 | 100 |
| H[Aib]EGS[αMeF]TDDV[αMeS]S[αMeF]LEGEAAK([PEG2′-PEG2′-γGlu-Stearoyl])E[αMeF]IA[αMeF]VV[αMeK]GG-NH2 [SEQ ID NO 36] | 84 | 25 |
| B2 | 93 | 93 |
| B3 | 92 | 28 |
| B4 | 90 | 90 |
| B5 | 89 | 27 |
| HXEGTFTSDVSSYLEGQAAKEFIAWLVKGRK (Aib 2; K(ε-(PEG)2-(PEG)2-γE-Stearate) after R30; C-terminal amide) [SEQ ID NO 6] | 22 | 22 |
